Data as given in paper PMC4832279, “Characterisation of Shigella Spa33 and Thermotoga FliM/N reveals a new model for C‐ring assembly in T3SS” (Molecular Microbiology, 2015).
“And” between values parts separate entries of the source, which are not always exact repeats. Equal entries are not always repeated.

How the values were obtained:
[1] = molecular target: Spa33-FL/C2(Y221R) (1:2 complex with Y221R in Spa33-FL and in both copies of Spa33-C) (Shigella flexneri) (UniProt P0A1K9); experiment: native MS; purified proteins or co-expressed, co-purified complexes, buffer-exchanged in 200 mM ammonium acetate pH 7.5; non-denaturing conditions; Synapt HDMS
[2] = molecular target: Spa33-C (expressed alone from pET28b-Spa33-C, tag removed, 15N-labelled) (Shigella flexneri) (UniProt P0A1K9); experiment: as above
[3] = molecular target: Spa33-FL expressed from pETDuet-Spa33ΔRBS (N-terminal His-tag) (Shigella flexneri) (UniProt P0A1K9); experiment: as above
[4] = molecular target: Spa33-Cstrep (Spa33-C with an eight residue C-terminal Strep-tag) (Shigella flexneri) (UniProt P0A1K9); experiment: as above
[5] = molecular target: Spa33-FL/Cstrep2 (1:2 complex of Spa33-FL and Spa33-Cstrep) (Shigella flexneri) (UniProt P0A1K9); experiment: as above
[6] = molecular target: Spa33-FL/C2 (1:2 complex of His-Spa33-FL and Spa33-C) (Shigella flexneri) (UniProt P0A1K9); experiment: as above
[7] = molecular target: Thermotoga maritima FliM with an N-terminal His-tag (Thermotoga maritima) (UniProt Q9WZE6); experiment: as above
[8] = molecular target: Spa33-Cmbp (Spa33-C with a C-terminal maltose binding protein fusion) (Shigella flexneri) (UniProt P0A1K9); experiment: as above
[9] = molecular target: Spa33-C (co-expressed from pRSFDuet-Spa33-C with Spa33-FL(CTD)) (Shigella flexneri) (UniProt P0A1K9); experiment: as above
[10] = molecular target: Spa33-FL(CTD) (construct comprising only SpoA1 and SpoA2 of Spa33-FL) (Shigella flexneri); experiment: as above
[11] = molecular target: Thermotoga maritima FliN (C-terminal 132 residues of FliY) (Thermotoga maritima); experiment: as above
[12] = molecular target: Spa33-Ctrx (Spa33-C with a C-terminal thioredoxin fusion) (Shigella flexneri) (UniProt P0A1K9); experiment: as above
[13] = molecular target: Spa33-FL/Ctrx2 (1:2 complex of Spa33-FL and Spa33-Ctrx) (Shigella flexneri) (UniProt P0A1K9); experiment: as above
[14] = molecular target: T1, Spa33-FL (full-length Spa33 with an N-terminal His-tag) (Shigella flexneri, UniProt P0A1K9 1-293); experiment: as above; settings: both partners purified
T1 construct: Spa33 (SctQ), Shigella flexneri, full length; 293 residues by the printed range 192-293 at the extreme C-terminus; also called SctQ; His-Spa33-FL; source: E. coli B834 (DE3), from pET28b-Spa33, purified with Spa33-C (Ni-NTA, SEC)
T1 sequence: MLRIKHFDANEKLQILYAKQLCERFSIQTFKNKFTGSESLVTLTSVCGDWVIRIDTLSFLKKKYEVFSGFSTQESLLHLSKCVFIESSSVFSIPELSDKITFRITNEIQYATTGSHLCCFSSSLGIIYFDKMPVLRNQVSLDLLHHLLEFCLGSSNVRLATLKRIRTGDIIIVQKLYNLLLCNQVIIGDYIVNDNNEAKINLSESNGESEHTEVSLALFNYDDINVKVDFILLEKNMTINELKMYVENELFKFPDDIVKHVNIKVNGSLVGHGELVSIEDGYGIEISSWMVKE

[15] = molecular target: the molecule itself; experiment: as above
[16] = molecular target: T2, Spa33-FL(Y221R) with an N-terminal His-tag (Shigella flexneri, UniProt P0A1K9 1-293, Y221R); experiment: as above; settings: both partners purified
T2 construct: Spa33 (SctQ), Shigella flexneri, full length, Y221R in the SpoA2 domain; also called Spa33-FL of Spa33-FL/C2(Y221R); source: E. coli B834 (DE3), from pET28b-Spa33(Y221R), purified with Spa33-C(Y221R) (Ni-NTA, SEC)
T2 sequence: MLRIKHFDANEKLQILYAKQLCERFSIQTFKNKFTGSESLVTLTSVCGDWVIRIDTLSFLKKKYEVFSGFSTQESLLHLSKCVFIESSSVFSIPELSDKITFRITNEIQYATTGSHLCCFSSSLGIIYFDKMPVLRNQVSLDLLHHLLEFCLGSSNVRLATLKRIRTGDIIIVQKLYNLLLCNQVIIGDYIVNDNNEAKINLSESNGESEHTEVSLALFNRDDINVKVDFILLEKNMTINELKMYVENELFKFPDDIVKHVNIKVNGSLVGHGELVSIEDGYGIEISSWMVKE

[17] = molecular target: the molecule itself; experiment: crystal structure; 2.3 Å; 10 mg/ml Spa33 208-293, 21°C, sitting drop, 10% isopropanol, 0.1 M Na HEPES pH 7.0, 10% PEG 4000

Sequence of Thermotoga maritima FliM with an N-terminal His-tag (Thermotoga maritima) (Q9WZE6 whole entry, the tested form may be a part): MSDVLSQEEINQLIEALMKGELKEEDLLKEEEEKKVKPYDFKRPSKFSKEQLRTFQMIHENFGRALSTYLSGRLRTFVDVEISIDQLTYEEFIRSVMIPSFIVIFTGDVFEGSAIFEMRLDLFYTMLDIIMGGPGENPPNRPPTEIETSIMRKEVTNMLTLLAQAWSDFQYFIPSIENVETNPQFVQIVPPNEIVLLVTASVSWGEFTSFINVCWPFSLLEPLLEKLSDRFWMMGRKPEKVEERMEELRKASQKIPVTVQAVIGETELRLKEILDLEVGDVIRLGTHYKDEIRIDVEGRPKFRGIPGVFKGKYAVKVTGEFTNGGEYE

## Spa33-FL/C2(Y221R) (1:2 complex with Y221R in Spa33-FL and in both copies of Spa33-C) (from UniProt P0A1K9 1-293; P0A1K9 192-293)
[1]
  stoichiometry N: 2

## Spa33-C (expressed alone from pET28b-Spa33-C, tag removed, 15N-labelled) (from UniProt P0A1K9 192-293) (domain or fragment)
[2]
  stoichiometry N: 2

## Spa33-Cstrep (Spa33-C with an eight residue C-terminal Strep-tag) (from UniProt P0A1K9 192-293) (domain or fragment)
[3]
  stoichiometry N: 2
[4]
  stoichiometry N: 2

## Spa33-FL/Cstrep2 (1:2 complex of Spa33-FL and Spa33-Cstrep) (from UniProt P0A1K9 1-293; P0A1K9 192-293)
[5]
  stoichiometry N: 2 and 4

## Spa33-FL/C2 (1:2 complex of His-Spa33-FL and Spa33-C) (from UniProt P0A1K9 1-293; P0A1K9 192-293)
[6]
  stoichiometry N: 2 and 4 and 6

## Thermotoga maritima FliY, full length (natural protein)
[7]
  stoichiometry N: 1

## Spa33-Cmbp (Spa33-C with a C-terminal maltose binding protein fusion) (from UniProt P0A1K9 192-293) (domain or fragment)
[3]
  stoichiometry N: 2
[8]
  stoichiometry N: 2

## Spa33-C (co-expressed from pRSFDuet-Spa33-C with Spa33-FL(CTD)) (from UniProt P0A1K9 192-293) (domain or fragment)
[9]
  stoichiometry N: 2
[10]
  stoichiometry N: 2

## Thermotoga maritima FliN (C-terminal 132 residues of FliY) (domain or fragment)
[7]
  stoichiometry N: 3
[11]
  stoichiometry N: 2

## Spa33-Ctrx (Spa33-C with a C-terminal thioredoxin fusion) (from UniProt P0A1K9 192-293) (domain or fragment)
[3]
  stoichiometry N: 2
[12]
  stoichiometry N: 2

## Spa33-FL(CTD) (construct comprising only SpoA1 and SpoA2 of Spa33-FL) (domain or fragment)
[10]
  stoichiometry N: 2 and 3

## Spa33-FL/Ctrx2 (1:2 complex of Spa33-FL and Spa33-Ctrx) (from UniProt P0A1K9 1-293; P0A1K9 192-293)
[13]
  stoichiometry N: 2

B1: Spa33-C (alternative translation product of spa33, residues 192-293) (domain or fragment)
chain: MNDNNEAKINLSESNGESEHTEVSLALFNYDDINVKVDFILLEKNMTINELKMYVENELFKFPDDIVKHVNIKVNGSLVGHGELVSIEDGYGIEISSWMVKE
modifications: formylmethionine at the N-terminus (expected from the measured mass)
notes: Spa33 (SctQ), Shigella flexneri, residues 192-293; translated from an internal GTG start codon; Forms a homodimer (Spa33-C2) in the native mass spectrum; also called short variant of Spa33; source: E. coli B834 (DE3), made from the internal start site of pET28b-Spa33, co-purified with His-Spa33-FL (Ni-NTA, SEC)
[14]
  stoichiometry N: 2
[15]
  stoichiometry N: 2

B2: Spa33-C(Y221R) (domain or fragment)
chain: MNDNNEAKINLSESNGESEHTEVSLALFNRDDINVKVDFILLEKNMTINELKMYVENELFKFPDDIVKHVNIKVNGSLVGHGELVSIEDGYGIEISSWMVKE
modifications: formylmethionine at the N-terminus (as told for wild-type Spa33-C)
notes: Spa33 (SctQ), Shigella flexneri, residues 192-293 (Spa33-C), Y221R; also called Spa33-C of Spa33-FL/C2(Y221R)
[16]
  stoichiometry N: 2

B3: Spa33 208-293 (C-terminal 86 residues of Spa33) (domain or fragment)
chain: ESEHTEVSLALFNYDDINVKVDFILLEKNMTINELKMYVENELFKFPDDIVKHVNIKVNGSLVGHGELVSIEDGYGIEISSWMVKE
notes: Spa33 (SctQ), Shigella flexneri, residues 208-293; Two copies of the dimer in the asymmetric unit; also called SpoA2 domain of Spa33; source: E. coli B834 (DE3), purified (Ni-NTA, carboxypeptidase A, SEC); not shown: His tag, C-terminal, cleaved
[17]
  binding result: binds
